How the values were obtained:
activin-A (βA) mRNA = experiment: Northern blot of activin-A (βA) mRNA in tumors of inh-KO mice; format: in vivo, mouse; details: increase over WT controls, FIG. 5A
Experimental: (§1) 12-week-old female and 8-week-old male inh-KO mice with fully established ovarian or testicular tumors received a single injection of PBS or sActRIIB (30 mg/kg, SC). As a control, age-matched wild-type littermates received a single injection of PBS. Ovarian and testicular organ weights were determined by necropsy 14 days after the injection.
Total RNA was isolated from individual tissue samples after homogenization in Trizol (Invitrogen). A pool of 10 μg RNA for each group containing equal amounts of total RNA isolated from individual animals was subjected to Northern blot analysis. The northern probes used for βA and Ang-2 were generated by using RT-PCR (Phusion, Biolabs). βA primer set: 5′-CCCTTGCTTTGGCTGAGAGGA-3′ and 5′-TC ACA GGT CGT CGT AGG TCG-3′; Ang-2 primer set: 5′-TGT GCC GGG GAG AAG AG and 5′-TACAGTAGTGGGTTGAGGTTC-3′. To normalize the expression, northern blot membranes were re-probed with β-actin.

[1] = system: G361 human melanoma xenografts; experiment: G361 human melanoma xenograft growth in nude mice; format: in vivo; details: sActRIIB 20 mg/kg SC 1x/week from day 14, FIG. 19
Experimental: 5×10^6 G361 melanoma cells and 5637 bladder carcinoma cells, respectively, were inoculated SC into individual athymic nu/nu mice (Harlan Inc). Treatment was initiated 4 days after 5637 implantation and 14 days after G361 implantation, when the tumor volumes reached 130 mm^3−150 mm^3 5637-implanted mice received PBS or activin-A antibody (10 mg/kg, SC, 2×/week). G361-implanted mice received PBS or sActRIIB (20 mg/kg, SC, 1×/week).
For all xenograft experiments, the tumor sizes were measured longitudinally by using an electronic caliper Immediately prior to the 1st dose, the tumor-bearing mice were randomized to ensure even distribution in tumor sizes across different groups. Tumor volumes (mm^3) were calculated as tumor length (mm)×tumor width (mm)×tumor height (mm) Tumor weights were determined by necropsy.

[2] = system: ovarian tumors in inh-KO mice; experiment: Ovarian tumor mass in inh-KO mice (necropsy); format: in vivo, mouse; details: 12-week-old female inh-KO mice; single dose 30 mg/kg SC; necropsy 14 days after injection; FIG. 3A, 3B
Experimental: as §1

B1: sActRIIB: extracellular domain of human activin type-2B receptor fused to IgG2 Fc, expressed in CHO cells; sequence in the 26th table (protein)
chain: ETRWCIYYNANWELERTNQGLERCEGEQDKRLHCYASWRNSSGTIELVKKGCWLDDFNCYDRQECVATEENPQVYFCCCEGNFCNERFTHLPEAGGPEVTYEPPPTAPTGGGGSVECPPCPAPPVAGPSVFLFPPKPKDTLMISRTPEVTCVVVDVSHEDPEVQFNWYVDGVEVHNAKTKPREEQFNSTFRVVSVLTVVHQDWLNGKEYKCKVSNKGLPAPIEKTISKTKGQPREPQVYTLPPSREEMTKNQVSLTCLVKGFYPSDIAVEWESNGQPENNYKTTPPMLDSDGSFFLYSKLTVDKSRWQQGNVFSCSVMHEALHNHYTQKSLSLSPGK
modifications: left off: a dimerising Fc or GST
activin-A (βA) mRNA
  βA transcripts in the tumors (Northern blot): completely blocked
[1]
  growth rates and sizes of G361 melanoma xenografts: significantly decreased the growth rates and sizes
[2]
  ovarian tumor mass: regressed rapidly to the sizes seen in the WT control mice

From US20140220033A1, “Administration of an Anti-Activin-A Compound to a Subject” (Santa Maria Biotherapeutics, Inc., priority 2013, published 2014)
